{"source": "patent US6177078A", "about": "(Medvet Science Pty Limited, priority 1995, dated 2001)", "key": {"IL-3R α and β chains": {"target": "T1, IL-3R α and β chains (Homo sapiens, UniProt P26951)", "T1 construct": "expressed in transfected cells; host or cells: COS (monkey fibroblast) cells, transient co-transfection", "T1 sequence (P26951 19-378)": "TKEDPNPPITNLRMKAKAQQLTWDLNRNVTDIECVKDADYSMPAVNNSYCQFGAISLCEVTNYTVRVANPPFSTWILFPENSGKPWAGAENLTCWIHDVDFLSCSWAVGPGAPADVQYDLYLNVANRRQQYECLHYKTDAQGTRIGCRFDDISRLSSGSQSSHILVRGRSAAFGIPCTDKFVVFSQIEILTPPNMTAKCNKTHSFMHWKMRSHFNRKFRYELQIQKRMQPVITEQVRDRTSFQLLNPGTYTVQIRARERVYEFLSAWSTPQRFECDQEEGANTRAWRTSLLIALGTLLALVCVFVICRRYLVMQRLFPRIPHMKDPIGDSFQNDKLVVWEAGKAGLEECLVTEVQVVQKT", "experiment": "Competition for 125I-7G3 binding to COS cells expressing IL-3R α and β chains by IL-3 or GM-CSF", "settings": "COS cells transfected with IL-3Rα and β chain, preincubated, 1 nM 125I-7G3", "protocol": "(§1) The binding curve was analysed by Scatchard transformation.^31 In competition binding experiments F6 cells or COS cells co-expressing IL-3R α and β chains were preincubated for 2 hours at 4° C. with a range of concentrations of IL-3 or GM-CSF before adding 1 nM of ^125 I-7G3 for a further 2 hours."}, "IL-3Rα chain": {"target": "T2, IL-3Rα chain (Homo sapiens, UniProt P26951)", "T2 construct": "expressed in transfected cells", "T2 sequence (P26951 19-378)": "T1 sequence (P26951 19-378)", "experiment": "Competition for 125I-7G3 binding to F6 cells by IL-3 or GM-CSF", "settings": "F6 cells expressing IL-3Rα chain alone, preincubated, 1 nM 125I-7G3", "protocol": "as §1"}}}
{"substance": "GM-CSF: GM-CSF, a gift from Genetics Institute", "values": [{"measurement": "inhibition of 125I-7G3 binding to the IL-3R", "setting": "IL-3R α and β chains", "result": "not"}, {"measurement": "inhibition of 125I-7G3 binding to the IL-3R", "setting": "IL-3Rα chain", "result": "not"}]}
